Measured values from article PMC2675579, “Structure of N-acetylglucosamine-1-phosphate uridyltransferase (GlmU) from Mycobacterium tuberculosis in a cubic space group” (Acta Crystallographica Section F: Structural Biology and …, 2009).

Biological target: the molecule itself
Assay: SEC; 26/60 Superdex200 High Load gel-filtration column, 20 mM HEPES pH 7.5, 150 mM NaCl, 1 mM DTT

B1: N-acetylglucosamine-1-phosphate uridyltransferase (GlmU) from Mycobacterium tuberculosis (enzyme)
chain: MTFPGDTAVLVLAAGPGTRMRSDTPKVLHTLAGRSMLSHVLHAIAKLAPQRLIVVLGHDHQRIAPLVGELADTLGRTIDVALQDRPLGTGHAVLCGLSALPDDYAGNVVVTSGDTPLLDADTLADLIATHRAVSAAVTVLTTTLDDPFGYGRILRTQDHEVMAIVEQTDATPSQREIREVNAGVYAFDIAALRSALSRLSSNNAQQELYLTDVIAILRSDGQTVHASHVDDSALVAGVNNRVQLAELASELNRRVVAAHQLAGVTVVDPATTWIDVDVTIGRDTVIHPGTQLLGRTQIGGRCVVGPDTTLTDVAVGDGASVVRTHGSSSSIGDGAAVGPFTYLRPGTALGADGKLGAFVEVKNSTIGTGTKVPHLTYVGDADIGEYSNIGASSVFVNYDGTSKRRTTVGSHVRTGSDTMFVAPVTIGDGAYTGAGTVVREDVPPGALAVSAGPQRNIENWVQRKRPGSPAAQASKRASEMACQQPTQPPDADQTP
notes: GlmU, Mycobacterium tuberculosis, gene Rv1018c (glmU); model built for residues 1-472; also called Rv1018c gene product; M. tuberculosis GlmU
stoichiometry N: 3
